From patent US20250250357A1 (NANJING ZAIMING PHARMACEUTICAL, published 2025)

T1: monkey MSLN full-length protein (NCBI: XP_028696439.1) expressed on HEK293T-monkey MSLN cells (monkey)
T1 construct: Whole encoded precursor
T1 chain: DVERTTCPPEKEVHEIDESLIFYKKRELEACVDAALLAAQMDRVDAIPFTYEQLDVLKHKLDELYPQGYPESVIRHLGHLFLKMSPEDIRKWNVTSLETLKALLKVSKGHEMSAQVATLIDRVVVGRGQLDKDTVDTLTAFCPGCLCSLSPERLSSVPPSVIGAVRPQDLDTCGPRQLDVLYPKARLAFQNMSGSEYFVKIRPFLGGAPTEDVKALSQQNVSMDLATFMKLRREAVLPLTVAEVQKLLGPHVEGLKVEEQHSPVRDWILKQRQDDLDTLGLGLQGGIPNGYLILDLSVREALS

B1: S009-F3.80.22 (antibody, human IgG1, kappa, V domains shown)
VH: QVQLQQSGAELVRPGASVTLSCKASGYTFTDYEIHWVKQTPVHGLEWIGAFDPEIGGSAYNQKFKDRATLTADKSSSTAYMELHSLTAEDSAVYYCTDYYGSSSGYFDVWGTGTTVTVSS
VL: DVVMTQTPLSLPVSLGDQASISCRSSQSLEHNNGNTYLHWFLHKPGQSPKLLIYKVSNRFSGVPDRFSGSGSGTDFTLKISRVEAEDLGVYFCSQSTHVPFTFGSGTKLEIKR
notes: human-murine chimeric antibody, human IgG1/kappa constant regions
B2: S009-F2.13.3 (antibody, human IgG1, kappa, V domains shown)
VH: QVQLQQSGAELMKPGASVKLSCKATGYTFTGYWIEWVKQRPGHGLEWIGEILPGSGSTNYNEKFKGKATFTADTSSNTAYMQLSSLTTEDSAIYYCARAGAWFAYWGQGTLVTVSA
VL: QIVLTQSPAIMSASLGERVTMTCTASSSVSSSYLHWYQQKPGSSPKLWTYSTSNLASGVPARFSGSGSGTSYSLTISSMEAEDAATYYCHQYHRSPWTFGGGTKLEIKR
notes: as for B1
B3: S009-F1.56.1 (antibody, human IgG1, kappa, V domains shown)
VH: EVQLQQSGAEVVKPGASVKLSCTASGFNIRHTYMHWVKQRPEQGLEWIGRIDPANGNTEYDPKFQGKATITADTSSNTAYLQLSSLTSEDTAVYYCARDGWYIDVWGAGTTVTVSS
VL: DIVMSQSPSSLAVSVGEKVTMSCKSSQSLLYSNNQKNYLAWYQQKPGQSPKLLIYWASTRESGVPDRFTGSGSGTDFTLTISSVKAEDLAVYYCQRYYSYPWTFGGGTKLEIKR
notes: as for B1
B4: S009-F2.17.3 (antibody, human IgG1, kappa, V domains shown)
VH: QVQLQQPGTELVTPGASVKLSCKASGYSFTSYWMHWVKQRPGQGLEWIGNINPSNGDTFYNEKFKNKATLTVDKSSSTAYMQLSSLTSEDSAVYYCARGWLRDYWGQGTTLTVSS
VL: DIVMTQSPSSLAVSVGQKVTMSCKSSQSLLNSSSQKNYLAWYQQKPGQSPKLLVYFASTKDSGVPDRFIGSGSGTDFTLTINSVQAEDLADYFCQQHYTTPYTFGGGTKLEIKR
notes: as for B1
B5: S009-F2.58.8 (antibody, human IgG1, kappa, V domains shown)
VH: QVQLLQSGAELAKPGASVKLSCKASGYTFTSYWVHWVKQRPGQGLEWIGYINPNSGYTKYNQKFKDKATLTADKSSSTAYMQLSSLTYEDSAVYYCADHYYGSSRDYFDYWGQGTTLTVSS
VL: QIVLTQSPAIMSASPGEKVTMTCSASSSVSYMYWYQQRPGSSPRLLIYDTSNLASGVPVRFSGSGSGTSYSLTISRMEAEDAATYYCQQWNSYPYTFGGGTKLEIKR
notes: as for B1
B6: S009-F2.39.3 (antibody, human IgG1, kappa, V domains shown)
VH: QVQLQQPGTELVKPGASVKLSCKASGYTFTNYWMHWVKQRPGQGLEWIGNINPSSGDSYYNERFMSKAKMTVDKSSSTAYMQLSSLTSEDSAVYYCARSGGLWLAFWGPGTLVTVSA
VL: DIVMTQSPSSLAMSVGQKVTMSCKSSQTLLNSVSQNNYLAWYQQKPGQSPTLLVYFASTRESGVPDRFIGGGSGTDFTLTISSVQAEDLADYFCQQHYRTPYTFGGGTNLEIKR
notes: as for B1
B7: S009-F1.35.24 (antibody, human IgG1, kappa, V domains shown)
VH: EVQLQQSEPELVKPGASVRISCKASGYSFTDYYMHWVKQSPENRLEWIGEINPSTGGTSYNPKFKDKATLTVDKSSSTAYMQLKSLTSEESAVYYCTRYHYYGSSSYVMDYWGQGTSVTVSS
VL: QIVLTQSPAILSASPGERVTMTCSASSSVYHMHWFQQKSGTSPKRWVYDTSKLASGVPARFSGSGSGTSYSLTISSMEAEDAATYYCQHWRTNPLTFGAGTKLELKR
notes: as for B1
B8: Tab106 (YP218, hIgG1) (antibody, V domains shown)
VH: QQQLEESGGGLVKPEGSLTLTCKASGFDLGFYFYACWVRQAPGKGLEWIACIYTAGSGSTYYASWAKGRFTISKASSTTVTLQMTSLAAADTATYFCARSTANTRSTYYLNLWGPGTLVTVSS
VL: DVVMTQTPASVSEPVGGTVTIKCQASQRISSYLSWYQQKPGQRPKLLIFGASTLASGVPSRFKGSGSGTEYTLTISDLECADAATYYCQSYAYFDSNNWHAFGGGTEVVVRT
notes: Control antibody; also called YP218 human IgG1 antibody

Target: T2, human MSLN full-length protein (NCBI: AAH09272.1) expressed on HEK293T-hMSLN-B8 cells (human, UniProt Q13421 296-598)
T2 construct: Whole encoded precursor
Assay: FACS on HEK293T-hMSLN-B8 cells
Method: (§1) The desired cells were expanded to the logarithmic growth phase in a T-75 cell culture flask. […] After the cells from the previous step were subjected to cell counting, the cell pellet was resuspended to 2×10⁶ cells/mL in a blocking buffer of [PBS+2% (w/w) BSA] and added into a 96-well FACS reaction plate at 50 μL/well. A chimeric antibody (a sample to be tested) was added at 50 μL/well, and the plate was incubated on ice for 2 h. […] After the plate was centrifuged and washed 5 times with a PBST buffer, assay and analysis were performed by FACS (FACS CantoII, purchased from BD). Data analysis was performed by software (Flowjo) to obtain the mean fluorescence intensity (MFI) of the cells.

T2 sequence (Q13421 other isoform, or with tags, fused parts or gaps limits assumed): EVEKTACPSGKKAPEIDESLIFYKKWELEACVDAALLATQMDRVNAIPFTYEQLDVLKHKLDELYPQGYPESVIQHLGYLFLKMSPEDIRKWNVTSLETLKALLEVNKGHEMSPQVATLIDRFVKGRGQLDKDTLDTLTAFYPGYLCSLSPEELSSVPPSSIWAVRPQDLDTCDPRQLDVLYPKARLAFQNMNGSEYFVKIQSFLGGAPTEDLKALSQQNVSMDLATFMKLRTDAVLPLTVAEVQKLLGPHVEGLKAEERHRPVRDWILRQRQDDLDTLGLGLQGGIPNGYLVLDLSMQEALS

EC50	Maximum mean fluorescence intensity	Binder
36.4 nM	24700	B1

Target: T3, human MSLN protein endogenously expressed on OVCAR3 tumor cells (human, UniProt Q13421 296-598)
T3 construct: whole, on cells; Endogenous target on OVCAR3 cells; kept apart from the recombinant full-length construct; also called mesothelin
Assay: FACS on OVCAR3 cells
Method: as §1

T3 sequence (Q13421 other isoform, or with tags, fused parts or gaps): as the sequence (Q13421 other isoform, or with tags, fused parts or gaps limits assumed) above, with P14R counted along it

Maximum mean fluorescence intensity	Binder
263	B1

Target: T4, human MSLN-FL-his protein (human, UniProt Q13421 296-580)
T4 construct: made in HEK293E cells, purified on nickel column; also called hMSLN-FL-his; human MSLN full-length protein; not shown: His tag
Assay: competitive ELISA; row Tab108 (R3); also: test concentration or dose not given here

T4 sequence (Q13421 other isoform, or with tags, fused parts or gaps): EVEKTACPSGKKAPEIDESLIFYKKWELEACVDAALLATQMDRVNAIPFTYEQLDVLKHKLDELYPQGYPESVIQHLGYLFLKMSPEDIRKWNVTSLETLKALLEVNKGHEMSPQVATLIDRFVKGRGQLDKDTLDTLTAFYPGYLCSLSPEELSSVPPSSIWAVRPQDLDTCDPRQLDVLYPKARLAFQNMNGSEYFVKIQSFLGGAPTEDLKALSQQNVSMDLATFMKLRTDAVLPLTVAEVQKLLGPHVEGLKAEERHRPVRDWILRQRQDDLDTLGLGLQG

competition rate	Binder
-105%	B2
-36%	B3
100%	B4
60%	B5
101%	B6
62%	B7

Target: T4, human MSLN-FL-his protein
Assay: competitive ELISA; row F1.35.24; also: test concentration or dose not given here

competition rate	Binder
7%	B2
79%	B3
43%	B4
96%	B5
47%	B6
100%	B7

Target: T5, human MSLN-R3 protein (Met487-Ser606 of NCBI AAH09272.1) expressed on HEK293T-hMSLN-R3 cells (human, UniProt Q13421 487-606)
T5 construct: also called Region3
Assay: FACS on HEK293T-hMSLN-R3 cells
Method: as §1

T5 sequence (Q13421 495-614): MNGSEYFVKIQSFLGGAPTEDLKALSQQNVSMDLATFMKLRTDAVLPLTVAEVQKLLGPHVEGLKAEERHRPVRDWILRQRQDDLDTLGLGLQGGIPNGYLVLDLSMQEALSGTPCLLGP

EC50	Maximum mean fluorescence intensity	Binder
0.65 nM	7460	B8

Target: T4, human MSLN-FL-his protein
Assay: competitive ELISA; row F1.2.12; also: test concentration or dose not given here

competition rate	Binder
23%	B2
75%	B3
-182%	B4
-133%	B5
-208%	B6
-15%	B7

Target: T4, human MSLN-FL-his protein
Assay: competitive ELISA; row Tab107 (conformation); also: test concentration or dose not given here

competition rate	Binder
-54%	B2
-35%	B3
-1%	B4
-6%	B5
0%	B6
36%	B7

Target: T5, human MSLN-R3 protein (Met487-Ser606 of …)
Assay: FACS on HEK293T-hMSLN-R3 cells
Remark: another data set of the same source
Method: as §1

EC50	Maximum mean fluorescence intensity	Binder
0.28 nM	25400	B8

Target: T4, human MSLN-FL-his protein
Assay: competitive ELISA; row F2.39.3; also: test concentration or dose not given here

competition rate	Binder
13%	B2
69%	B3
106%	B4
91%	B5
105%	B6
67%	B7

Target: T4, human MSLN-FL-his protein
Assay: competitive ELISA; row Tab142 (R1); also: test concentration or dose not given here

competition rate	Binder
-33%	B2
9%	B3
15%	B4
46%	B5
19%	B6
49%	B7

Target: T4, human MSLN-FL-his protein
Assay: competitive ELISA; row F2.17.3
Method: In order to identify antigen-binding sites of antibodies, MSLN chimeric antibodies were grouped using competitive ELISA.
The chimeric antibodies were diluted to 2 μg/mL with PBS and allowed to coat 96-well high-adsorption ELISA plates at 50 μL/well. After the plates were coated at 4° C. overnight, 250 μL of a blocking buffer (PBS containing 2% (w/w) BSA) was added for two hours of blocking at room temperature. 40 μg/mL of the antibodies to be tested were added, and then the human MSLN-FL-His protein with an EC₈₀ concentration corresponding to each of the antibodies to be tested was added for incubation for 2 h. The plates were washed 5 times with PBS, an HRP-labeled anti-His secondary antibody (purchased from Genescript, Cat. No. A00612) was then added for incubation for 1 h, and the plates were washed 5 times again. A TMB substrate was added at 50 μL/well, and after 10 minutes of incubation at room temperature, a stop solution (1.0 M HCl) was added at 50 μL/well. OD₄₅₀ nm values were read using an ELISA plate reader (Insight, purchased from PerkinElmer), and the competition rate between the antibodies was calculated according to the OD₄₅₀ nm values using a formula.

competition rate	Binder
-11%	B2
-6%	B3
102%	B4
84%	B5
107%	B6
59%	B7

Target: T4, human MSLN-FL-his protein
Assay: competitive ELISA; row F2.13.3; also: test concentration or dose not given here

competition rate	Binder
84%	B2
-588%	B3
-814%	B4
-396%	B5
-525%	B6
29%	B7

Target: T4, human MSLN-FL-his protein
Assay: SPR (Biacore), antibody captured on Protein A chip;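 also: measured at 25 °C, analyte injected 240 s in five twofold dilutions from 200 nM, dissociation up to 600 s, double-referenced, fitted with Langmuir 1:1 model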
Method: The flow cell was set at 25° C. The sample block was set at 16° C. Both were pretreated with the running buffer. In each cycle, first, the antibody to be tested was captured using the Protein A chip, and then a single concentration of human MSLN-FL-his protein was injected. […] The association was determined by injecting different concentrations of human MSLN-FL-his in solution for 240 s on end, wherein the flow rate was 30 μL/min, and the protein was diluted in a 1:1 dilution ratio from 200 nM (see detailed results for actual concentrations tested) to obtain 5 concentrations in total. The dissociation phase was monitored for up to 600 s and triggered by switching from the sample solution to the running buffer. The surface was regenerated by washing with 10 mM glycine solution (pH 1.5) at a flow rate of 30 μL/min for 30 s. The difference in bulk refractive index was corrected by subtracting the responses obtained from the goat anti-human Fc surface. Blank injections were also subtracted (=double reference). To calculate the apparent KD and other kinetic parameters, the Langmuir 1:1 model was used.

Kd	koff	kon	Binder
8.65 nM	0.00189 s⁻¹	219000 M⁻¹ s⁻¹	B2
0.889 nM	0.00071 s⁻¹	799000 M⁻¹ s⁻¹	B3
2.72 nM	0.000174 s⁻¹	64100 M⁻¹ s⁻¹	B4
0.524 nM	0.000123 s⁻¹	236000 M⁻¹ s⁻¹	B5
3.06 nM	0.000122 s⁻¹	40000 M⁻¹ s⁻¹	B6
0.914 nM	8.51e-05 s⁻¹	93100 M⁻¹ s⁻¹	B7

Target: T4, human MSLN-FL-his protein
Assay: competitive ELISA; row F2.24.10; also: test concentration or dose not given here

competition rate	Binder
-65%	B2
-39%	B3
-13%	B4
6%	B5
-13%	B6
13%	B7

Target: T5, human MSLN-R3 protein (Met487-Ser606 of …)
Assay: FACS on HEK293T-hMSLN-R3 cells
Remark: another data set of the same source
Method: as §1

EC50	Maximum mean fluorescence intensity	Binder
0.99 nM	4800	B1

Target: T1, monkey MSLN full-length protein (NCBI: …)
Assay: FACS on HEK293T-monkey MSLN cells
Method: as §1

Maximum mean fluorescence intensity	binding result	Binder
57	no binding	B1

Target: T4, human MSLN-FL-his protein
Assay: competitive ELISA; row F2.16.10; also: test concentration or dose not given here

competition rate	Binder
-41%	B2
-7%	B3
-8%	B4
41%	B5
4%	B6
31%	B7

Target: T4, human MSLN-FL-his protein
Assay: competitive ELISA; row F1.56.1; also: test concentration or dose not given here

competition rate	Binder
-426%	B2
104%	B3
-56%	B4
104%	B5
-87%	B6
97%	B7

Target: T4, human MSLN-FL-his protein
Assay: competitive ELISA; row F2.58.8; also: test concentration or dose not given here

competition rate	Binder
-86%	B2
107%	B3
78%	B4
111%	B5
97%	B6
100%	B7
